{
  "source": "patent US20050164234A1",
  "about": "“Methods of using mammalian RNase H and compositions thereof” (priority 1997, published 2005)",
  "origin": "cited, not measured here",
  "molecules": {"B1": {"name": "E. coli RNase H1: E. coli RNase H1 enzyme, 155 amino acids, literature comparator (protein)", "chain": "MLKQVEIFTDGSCLGNPGPGGYGAILRYRGREKTFSAGYTRTTNNRMELMAAIVALEALKEHCEVILSTDSQYVRQGITQWIHNWKKRGWKTADKKPVKNVDLWQRLDAALGQHQIKWEWVKGHAGHPENERCDELARAAAMNPTLEDTGYQVEV"}},
  "molecular_target": "DNA/2′F heteroduplex",
  "conditions": "derived from previously reported data, Lima and Crooke (1997); cited from earlier work",
  "data": [
    {"molecule": "B1", "values": [
      {"measurement": "Kd", "result": 1600, "unit": "nM"}
    ]}
  ]
}
